From US20250262210A1 (TRUSTEES OF COLUMBIA UNIVERSITY IN THE CITY OF NEW YORK, published 2025)

Tests used:
Assay in all cases: IP/MS, LZTR1 wild type-FLAG, U87
CC2D1A = target: T1, CC2D1A (human, UniProt Q6P1N0 1-951, limits assumed)
T1 sequence (looked up): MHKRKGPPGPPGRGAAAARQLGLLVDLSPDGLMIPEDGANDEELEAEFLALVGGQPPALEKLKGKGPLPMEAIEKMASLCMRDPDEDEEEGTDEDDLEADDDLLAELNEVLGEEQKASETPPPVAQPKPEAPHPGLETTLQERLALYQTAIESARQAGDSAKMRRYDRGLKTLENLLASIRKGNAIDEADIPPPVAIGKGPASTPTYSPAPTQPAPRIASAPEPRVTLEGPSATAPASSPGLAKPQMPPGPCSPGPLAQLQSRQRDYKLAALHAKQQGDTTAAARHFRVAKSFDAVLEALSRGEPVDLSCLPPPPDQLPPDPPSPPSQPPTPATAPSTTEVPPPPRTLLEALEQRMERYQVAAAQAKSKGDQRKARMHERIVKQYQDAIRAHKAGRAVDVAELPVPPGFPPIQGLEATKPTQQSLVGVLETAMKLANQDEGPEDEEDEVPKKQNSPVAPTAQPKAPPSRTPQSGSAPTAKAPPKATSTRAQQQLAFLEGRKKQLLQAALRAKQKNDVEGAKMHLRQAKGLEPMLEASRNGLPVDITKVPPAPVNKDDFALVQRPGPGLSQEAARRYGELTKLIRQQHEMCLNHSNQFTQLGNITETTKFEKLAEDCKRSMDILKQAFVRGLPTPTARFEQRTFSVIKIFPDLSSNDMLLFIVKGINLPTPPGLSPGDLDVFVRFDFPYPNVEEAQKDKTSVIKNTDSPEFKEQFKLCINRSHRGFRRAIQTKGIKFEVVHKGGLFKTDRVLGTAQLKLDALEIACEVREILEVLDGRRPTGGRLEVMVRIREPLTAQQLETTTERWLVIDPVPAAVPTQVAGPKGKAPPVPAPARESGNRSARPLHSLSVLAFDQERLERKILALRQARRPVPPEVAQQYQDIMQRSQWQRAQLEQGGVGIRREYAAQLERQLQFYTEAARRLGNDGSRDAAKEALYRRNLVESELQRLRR
Procedure, shortened: (§1)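 Read-out: spectral counts from LC-MS/MS (Orbitrap Fusion) after MaxQuant identification. Variable modifications were Met oxidation, protein N-terminal acetylation and N/Q deamidation.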

SBNO2 = target: T2, SBNO2 (human, UniProt Q9Y2G9 1-1366, limits assumed)
T2 sequence (looked up): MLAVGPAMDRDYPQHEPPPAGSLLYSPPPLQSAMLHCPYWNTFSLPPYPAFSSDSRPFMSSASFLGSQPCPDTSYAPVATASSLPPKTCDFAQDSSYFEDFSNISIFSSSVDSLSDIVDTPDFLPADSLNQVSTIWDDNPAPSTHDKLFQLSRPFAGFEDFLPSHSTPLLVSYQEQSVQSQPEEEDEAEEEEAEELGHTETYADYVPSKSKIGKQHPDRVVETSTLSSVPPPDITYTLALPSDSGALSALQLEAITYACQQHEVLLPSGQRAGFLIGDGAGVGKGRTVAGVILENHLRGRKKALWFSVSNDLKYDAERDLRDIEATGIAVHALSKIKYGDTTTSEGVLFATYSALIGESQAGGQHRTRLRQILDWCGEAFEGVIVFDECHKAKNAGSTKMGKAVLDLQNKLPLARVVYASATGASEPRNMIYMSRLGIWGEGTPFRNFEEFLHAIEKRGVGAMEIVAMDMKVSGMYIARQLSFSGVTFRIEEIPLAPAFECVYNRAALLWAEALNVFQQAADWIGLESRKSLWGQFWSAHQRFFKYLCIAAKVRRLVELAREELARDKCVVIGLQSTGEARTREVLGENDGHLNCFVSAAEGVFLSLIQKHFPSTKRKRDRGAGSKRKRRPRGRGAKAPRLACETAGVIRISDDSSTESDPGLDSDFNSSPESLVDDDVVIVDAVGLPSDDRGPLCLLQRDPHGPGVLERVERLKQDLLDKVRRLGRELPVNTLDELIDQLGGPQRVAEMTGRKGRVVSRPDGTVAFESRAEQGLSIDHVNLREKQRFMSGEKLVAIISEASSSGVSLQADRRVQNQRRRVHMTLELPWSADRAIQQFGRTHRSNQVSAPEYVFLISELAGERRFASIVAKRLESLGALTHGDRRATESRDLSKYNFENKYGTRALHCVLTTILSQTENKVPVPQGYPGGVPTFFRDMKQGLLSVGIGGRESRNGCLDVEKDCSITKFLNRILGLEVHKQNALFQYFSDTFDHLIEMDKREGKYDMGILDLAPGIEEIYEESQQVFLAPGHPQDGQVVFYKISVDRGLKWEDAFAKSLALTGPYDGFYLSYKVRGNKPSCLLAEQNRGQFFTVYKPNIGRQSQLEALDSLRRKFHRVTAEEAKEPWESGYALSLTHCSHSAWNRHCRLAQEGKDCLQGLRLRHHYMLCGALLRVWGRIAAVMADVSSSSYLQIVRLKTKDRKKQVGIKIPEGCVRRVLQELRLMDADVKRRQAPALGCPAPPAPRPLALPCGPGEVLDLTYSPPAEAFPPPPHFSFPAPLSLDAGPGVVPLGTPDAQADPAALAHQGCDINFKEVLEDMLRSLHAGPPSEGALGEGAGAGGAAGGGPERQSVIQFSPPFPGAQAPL
Procedure, shortened: as §1

POLR1A = POLR1A (human, UniProt O95602 1-1720)
Procedure, shortened: as §1

Measured: binding result

Sequence of POLR1A (O95602 whole entry): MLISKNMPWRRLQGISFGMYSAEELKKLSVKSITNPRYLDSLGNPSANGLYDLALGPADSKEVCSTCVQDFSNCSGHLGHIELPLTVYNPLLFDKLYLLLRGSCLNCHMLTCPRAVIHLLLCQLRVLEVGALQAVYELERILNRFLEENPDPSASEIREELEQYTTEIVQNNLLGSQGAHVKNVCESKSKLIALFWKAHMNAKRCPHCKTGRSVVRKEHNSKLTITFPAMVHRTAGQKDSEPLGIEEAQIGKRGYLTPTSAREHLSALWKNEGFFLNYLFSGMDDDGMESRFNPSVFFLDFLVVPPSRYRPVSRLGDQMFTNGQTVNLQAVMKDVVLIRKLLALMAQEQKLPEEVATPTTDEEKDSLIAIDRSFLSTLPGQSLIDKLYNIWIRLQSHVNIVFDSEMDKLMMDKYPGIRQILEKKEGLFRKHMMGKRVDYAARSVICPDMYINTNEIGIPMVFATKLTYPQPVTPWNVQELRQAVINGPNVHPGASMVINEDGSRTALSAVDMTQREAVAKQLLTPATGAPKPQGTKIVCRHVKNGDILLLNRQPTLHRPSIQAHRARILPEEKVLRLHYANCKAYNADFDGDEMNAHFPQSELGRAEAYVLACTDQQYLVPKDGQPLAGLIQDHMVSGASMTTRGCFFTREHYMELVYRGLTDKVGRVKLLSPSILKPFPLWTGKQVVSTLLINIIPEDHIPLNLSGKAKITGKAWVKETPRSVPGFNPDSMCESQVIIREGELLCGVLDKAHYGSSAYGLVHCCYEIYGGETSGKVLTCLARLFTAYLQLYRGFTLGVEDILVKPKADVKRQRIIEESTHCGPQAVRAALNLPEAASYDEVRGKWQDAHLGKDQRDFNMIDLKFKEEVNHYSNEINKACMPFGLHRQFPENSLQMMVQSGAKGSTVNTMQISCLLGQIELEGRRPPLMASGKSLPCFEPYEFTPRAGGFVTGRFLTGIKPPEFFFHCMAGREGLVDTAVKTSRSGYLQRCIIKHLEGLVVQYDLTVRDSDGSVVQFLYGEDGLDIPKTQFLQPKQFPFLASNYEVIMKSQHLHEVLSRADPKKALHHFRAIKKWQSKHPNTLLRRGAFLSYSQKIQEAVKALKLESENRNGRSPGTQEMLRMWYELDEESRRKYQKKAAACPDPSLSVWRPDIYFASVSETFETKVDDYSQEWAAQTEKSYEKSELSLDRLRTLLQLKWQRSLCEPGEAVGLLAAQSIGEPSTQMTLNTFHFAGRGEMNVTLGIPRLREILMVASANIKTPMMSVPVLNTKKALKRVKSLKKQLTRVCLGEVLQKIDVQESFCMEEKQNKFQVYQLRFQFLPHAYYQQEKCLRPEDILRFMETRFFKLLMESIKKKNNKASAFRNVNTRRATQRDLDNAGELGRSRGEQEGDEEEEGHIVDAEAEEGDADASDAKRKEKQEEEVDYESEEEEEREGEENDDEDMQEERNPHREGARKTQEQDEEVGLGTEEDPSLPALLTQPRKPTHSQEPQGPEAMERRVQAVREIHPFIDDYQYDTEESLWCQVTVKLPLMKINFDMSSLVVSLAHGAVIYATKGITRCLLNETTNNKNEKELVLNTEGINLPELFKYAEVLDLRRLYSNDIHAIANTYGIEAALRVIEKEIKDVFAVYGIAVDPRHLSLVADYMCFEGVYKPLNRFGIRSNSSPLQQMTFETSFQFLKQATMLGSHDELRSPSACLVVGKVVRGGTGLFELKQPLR

B1: LZTR1-FLAG (other, human, UniProt Q8N653 1-840, looked up)
chain: MAGPGSTGGQIGAAALAGGARSKVAPSVDFDHSCSDSVEYLTLNFGPFETVHRWRRLPPCDEFVGARRSKHTVVAYKDAIYVFGGDNGKTMLNDLLRFDVKDCSWCRAFTTGTPPAPRYHHSAVVYGSSMFVFGGYTGDIYSNSNLKNKNDLFEYKFATGQWTEWKIEGRLPVARSAHGATVYSDKLWIFAGYDGNARLNDMWTIGLQDRELTCWEEVAQSGEIPPSCCNFPVAVCRDKMFVFSGQSGAKITNNLFQFEFKDKTWTRIPTEHLLRGSPPPPQRRYGHTMVAFDRHLYVFGGAADNTLPNELHCYDVDFQTWEVVQPSSDSEVGGAEVPERACASEEVPTLTYEERVGFKKSRDVFGLDFGTTSAKQPTQPASELPSGRLFHAAAVISDAMYIFGGTVDNNIRSGEMYRFQFSCYPKCTLHEDYGRLWESRQFCDVEFVLGEKEECVQGHVAIVTARSRWLRRKITQARERLAQKLEQEAAPVPREAPGVAAGGARPPLLHVAIREAEARPFEVLMQFLYTDKIKYPRKGHVEDVLLIMDVYKLALSFQLCRLEQLCRQYIEASVDLQNVLVVCESAARLQLSQLKEHCLNFVVKESHFNQVIMMKEFERLSSPLIVEIVRRKQQPPPRTPLDQPVDIGTSLIQDMKAYLEGAGAEFCDITLLLDGHPRPAHKAILAARSSYFEAMFRSFMPEDGQVNISIGEMVPSRQAFESMLRYIYYGEVNMPPEDSLYLFAAPYYYGFYNNRLQAYCKQNLEMNVTVQNVLQILEAADKTQALDMKRHCLHIIVHQFTKVSKLPTLRSLSQQLLLDIIDSLASHISDKQCAELGADI
notes: Expressed in HEK 293T, HeLa or U87 cells; used as cell lysate; also called LZTR1 wild type-FLAG; LZTR1 WT; not shown: FLAG tag at the C-terminus
binds: all assays above
